The test system of the data set is Swi6-Y (Swi6-T278Y) (Schizosaccharomyces pombe). The data set can be described thus: EMSA. The settings on record: 20 mM Hepes pH 7.5, 4 mM Tris, 80 mM KCl, 0.1% Igepal CA-630, 0.2 mM EDTA, 2 mM DTT, 10% glycerol, 10 nM mononucleosome, 30 °C 45 min, 6% acrylamide 0.5x TBE …. A general note: A gel shift assay detects complexes by their altered migration in electrophoresis.

Where the note is “H3K9me0 histone, unmodified H3 (H3K9me0)”, H3K9me0 mononucleosome had a binding signal (fold weaker than H3K9me3) of 2.3.
For H3K9me3 mononucleosome, under “H3K9me3 histone, histone H3K9me3 (DNA unmodified)”, the K half was determined as 39 nM.

The values above are taken from publication PMC11272775, “Epigenetic memory is governed by an effector recruitment specificity toggle in Heterochromatin Protein 1” (Nature Communications, 2024).
